# B1: GFOD1 (parent)
# chain: EEAEELAKEMSVPFYTSRIDEVLL
# B2: STK38L (parent)
# chain: NWKETLVFPPEVPISEKAKDLILR
# Variants of: B1
# Experiment: protein stability index of a GFP-peptide fusion (GPS, HEK-293T) (PSI 1-6); higher = more stable
# Details: c terminus: a fixed tail appended
# 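Note: lentivirally expressed fusions sorted by FACS into six bins by GFP to DsRed ratio, PSI derived from sequencing read proportions per bin multiplied by bin number.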
row,Variant,protein stability index
1,S11L,4.46
2,S11M,3.67
3,S11N,2.23
4,S11P,3.87
5,S11Q,4.04
6,S11R,3.02
7,S11T,4.12
8,S11W,2.76
9,S11Y,2.86
10,V12A,3.2
11,V12C,3.71
12,V12D,3.47
13,V12E,4.38
14,V12F,2.91
15,V12G,4.26
16,V12H,3.03
17,V12I,3.6
18,V12K,3.99
19,V12L,3.67
20,V12M,4.31
21,V12N,4.56
22,V12P,4.14
23,V12Q,3.91
24,V12R,3.89
25,V12S,4.46
26,V12T,4.2

row,Variant,protein stability index
1,V12Y,4.22
2,P13C,3.27
3,P13D,3.96
4,P13E,3.97
5,P13G,4.02
6,P13H,2.54
7,P13I,2.03
8,P13K,3.19
9,P13L,2.57
10,P13M,3.32
11,P13N,3.78
12,P13Q,3.47
13,P13R,4.11
14,P13S,3.47
15,P13T,4.03
16,P13V,2.74
17,P13W,1.97
18,F14A,4.46
19,F14D,4.9
20,F14E,4.4
21,F14G,3.4
22,F14H,4.2
23,F14I,4.05
24,F14K,4.2
25,F14L,3.79
26,F14M,3.83

row,Variant,protein stability index
1,F14N,4.68
2,F14P,4.85
3,F14Q,5
4,F14R,4.22
5,F14S,4.37
6,F14T,4.51
7,F14V,3.86
8,F14W,3.66
9,Y15A,4.47
10,Y15C,3.97
11,Y15E,4.99
12,Y15F,3.61
13,Y15G,4.97
14,Y15H,4.77
15,Y15I,3.62
16,Y15K,4.41
17,Y15L,3.67
18,Y15M,4.14
19,Y15N,4.83
20,Y15P,5
21,Y15Q,4.42
22,Y15R,4.2
23,Y15S,5.01
24,Y15T,4.91
25,Y15W,3.1
26,T16A,4

row,Variant,protein stability index
1,T16C,3.81
2,T16D,4.33
3,T16F,2.33
4,T16G,3.78
5,T16H,3.93
6,T16I,3.08
7,T16K,3.7
8,T16L,2.75
9,T16M,3.03
10,T16N,4.17
11,T16P,3.65
12,T16Q,4.17
13,T16R,3.27
14,T16S,3.27
15,T16V,3.45
16,T16W,2.32
17,T16Y,2.27
18,S17A,3.09
19,S17C,2.52
20,S17D,4.98
21,S17E,4.27
22,S17F,1.79
23,S17H,3.71
24,S17I,2.38
25,S17K,3.87
26,S17L,2.09

row,Variant,protein stability index
1,S17N,4.04
2,S17P,4.43
3,S17Q,3.27
4,S17R,3.9
5,S17T,3.29
6,S17V,3.12
7,S17W,3
8,S17Y,2.94
9,R18A,4.26
10,R18C,4.17
11,R18D,4.79
12,R18E,4.65
13,R18F,3.17
14,R18H,4.57
15,R18I,2.92
16,R18K,4.26
17,R18L,3.05
18,R18M,3.43
19,R18N,4.4
20,R18P,4.15
21,R18Q,4.69
22,R18S,4.56
23,R18T,4.27
24,R18V,2.64
25,R18W,3.71
26,R18Y,4.04

row,Variant,protein stability index
1,I19A,4.54
2,I19C,4
3,I19D,5.04
4,I19E,5.1
5,I19F,3.01
6,I19G,4.48
7,I19H,4.85
8,I19K,4.41
9,I19L,3.69
10,I19M,3.2
11,I19N,5
12,I19P,4.48
13,I19Q,4.93
14,I19R,4.57
15,I19S,4.75
16,I19T,4.11
17,I19V,4.31
18,I19Y,4.64
19,D20A,2.74
20,D20C,2.46
21,D20E,3.91
22,D20F,2
23,D20G,2.42
24,D20H,2.73
25,D20I,1.9
26,D20K,2.78

row,Variant,protein stability index
1,D20L,2.07
2,D20M,2.33
3,D20N,3.29
4,D20P,3.55
5,D20Q,3.79
6,D20R,3.04
7,D20T,2.66
8,D20V,2.08
9,D20W,2.59
10,D20Y,2.47
11,E21A,2.66
12,E21C,1.97
13,E21D,4.08
14,E21F,1.42
15,E21K,2.56
16,E21L,1.61
17,E21M,1.78
18,E21N,3.69
19,E21P,3.92
20,E21Q,3.39
21,E21R,2.8
22,E21S,3.83
23,E21T,3.65
24,E21V,2.45
25,E21W,1.83
26,E21Y,2.66

row,Variant,protein stability index
1,V22A,4.53
2,V22C,3.7
3,V22D,5.23
4,V22E,5.12
5,V22F,3.73
6,V22H,4.68
7,V22I,3.23
8,V22L,3.1
9,V22M,4.29
10,V22N,4.21
11,V22P,4.24
12,V22Q,4.65
13,V22R,4.26
14,V22S,3.86
15,V22T,4.51
16,V22W,3.62
17,V22Y,3.78
18,L23D,5.11
19,L23E,5.13
20,L23F,2.98
21,L23G,3.66
22,L23H,3.9
23,L23I,3.66
24,L23N,4.21
25,L23P,4.57
26,L23Q,4.72

row,Variant,protein stability index
1,L23R,4.31
2,L23S,4.54
3,L23T,3.87
4,L23V,4.26
5,L23W,3.02
6,L23Y,3.42
7,L24C,4.04
8,L24D,5.2
9,L24E,4.97
10,L24F,3.55
11,L24G,4.11
12,L24H,3.18
13,L24I,3.75
14,L24M,3.73
15,L24N,4.6
16,L24P,4.98
17,L24Q,4.78
18,L24S,4.41
19,L24T,4.22
20,L24V,4
21,L24Y,3.2

# Variants of: B2
# Experiment: as above
# Details: c terminus: a fixed tail appended
row,Variant,protein stability index
1,N1A,2.16
2,N1C,3.1
3,N1D,3.57
4,N1H,3.04
5,N1I,2.18
6,N1K,2.9
7,N1M,1.98
8,N1P,3
9,N1Q,3.09
10,N1R,2.74
11,N1S,4.02
12,N1V,2.41
13,N1W,1.78
14,N1Y,2.44
15,W2A,4.45
16,W2C,3.67
17,W2D,3.68
18,W2E,4.15
19,W2F,3.37
20,W2H,3.46
21,W2I,3.32
22,W2L,3.96
23,W2M,3.54
24,W2N,4.14
25,W2P,4.09
26,W2Q,4.21
27,W2R,3.39

row,Variant,protein stability index
1,W2S,3.01
2,W2T,4.64
3,W2V,3.59
4,W2Y,3.25
5,K3A,3.37
6,K3C,2.59
7,K3D,3.69
8,K3E,3.41
9,K3F,1.64
10,K3G,3.17
11,K3H,3.68
12,K3I,2.42
13,K3L,2.02
14,K3M,2.42
15,K3N,3.46
16,K3P,3.71
17,K3Q,3.77
18,K3R,3.12
19,K3S,3.17
20,K3T,3.23
21,K3V,2.53
22,K3W,2.07
23,K3Y,2.18
24,E4A,2.1
25,E4C,2.16
26,E4D,3.01
27,E4F,2.29

row,Variant,protein stability index
1,E4G,2.31
2,E4H,2.82
3,E4I,1.69
4,E4K,2.47
5,E4M,2.58
6,E4N,1.76
7,E4P,2.85
8,E4Q,2.62
9,E4R,1.97
10,E4S,2.32
11,E4T,2.57
12,E4V,2.38
13,E4W,1.78
14,E4Y,1.32
15,T5A,3.27
16,T5C,2.44
17,T5D,3.65
18,T5E,2.36
19,T5H,3.2
20,T5I,2.53
21,T5K,2.48
22,T5L,2.09
23,T5M,2.75
24,T5N,3.36
25,T5P,3.42
26,T5Q,4.08
27,T5R,3.12

row,Variant,protein stability index
1,T5S,2.87
2,T5V,2.61
3,T5W,2.05
4,T5Y,2.62
5,L6A,4.04
6,L6C,3
7,L6D,3.93
8,L6E,3.66
9,L6F,3.31
10,L6G,1.5
11,L6H,2.61
12,L6I,2.86
13,L6K,3.53
14,L6M,3.31
15,L6N,3.55
16,L6P,4.16
17,L6Q,3.87
18,L6R,2.83
19,L6S,3.62
20,L6T,3.46
21,L6V,3.15
22,L6W,2.74
23,L6Y,3.39
24,V7A,3.52

# Reference: the supplement of paper PMC10567573
